Reference: paper PMC5380960

Target: LH2-G1 (wild-type LH2 with the N-terminal fragment of Gaussia luciferase fused to its C-terminus) (UniProt O00469)
Test: split reporter (BiFC, NanoBiT); Gaussia luciferase protein-fragment complementation; LH2-G1 and FKBP65-G2 plasmids co-transfected 1:1 into 293F cells, 48 h, passive lysis buffer, luciferase activity of total cell lysates with 20 μM native coelenterazine

UniProt O00469, sequence (O00469 26-737): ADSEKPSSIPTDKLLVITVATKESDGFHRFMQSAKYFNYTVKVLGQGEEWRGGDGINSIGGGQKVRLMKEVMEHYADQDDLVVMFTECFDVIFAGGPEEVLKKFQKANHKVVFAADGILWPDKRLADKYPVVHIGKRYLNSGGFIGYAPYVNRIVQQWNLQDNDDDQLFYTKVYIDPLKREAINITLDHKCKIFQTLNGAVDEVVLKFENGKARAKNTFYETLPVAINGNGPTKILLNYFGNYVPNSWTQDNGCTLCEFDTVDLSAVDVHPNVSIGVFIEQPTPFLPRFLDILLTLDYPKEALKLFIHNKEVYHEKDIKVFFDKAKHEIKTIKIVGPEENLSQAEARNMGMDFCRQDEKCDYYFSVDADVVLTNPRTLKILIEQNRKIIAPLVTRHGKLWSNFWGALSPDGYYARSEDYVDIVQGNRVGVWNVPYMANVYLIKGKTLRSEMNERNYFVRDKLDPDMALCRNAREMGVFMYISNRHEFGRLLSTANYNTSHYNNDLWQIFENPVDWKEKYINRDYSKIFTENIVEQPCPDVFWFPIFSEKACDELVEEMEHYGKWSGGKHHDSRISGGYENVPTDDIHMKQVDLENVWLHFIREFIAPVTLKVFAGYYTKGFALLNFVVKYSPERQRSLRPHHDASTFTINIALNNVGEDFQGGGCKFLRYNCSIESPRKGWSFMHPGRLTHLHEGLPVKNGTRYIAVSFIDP

FKBP65-G2 (FKBP65 with the C-terminal fragment of Gaussia luciferase fused to its C-terminus) (from UniProt Q96AY3 27-582) (enzyme)
fold luciferase activity of co-transfected cells over either vector alone: 800 fold
